In PMC4770229, “Nuclear factor 90 uses an ADAR2-like binding mode to recognize specific bases in dsRNA”:

What was measured:
[1] = target: T1, NF90dsRBDs (mouse, UniProt Q9Z1X4 380-592); experiment: fluorescence anisotropy; EMSA: 20 mM HEPES pH 7.5, 150 mM K acetate, on ice, 1 uM RNA (competition 0.5 uM complex); FA: same buffer, 23.5 C, 250 nM RNA; ITC: 20 mM HEPES pH 7.5, 50 mM NaCl, 25 C; details: protein: recombinant; tags: GST removed by TEV; label: 5' Cy3 on strand 1; blunt
T1 sequence: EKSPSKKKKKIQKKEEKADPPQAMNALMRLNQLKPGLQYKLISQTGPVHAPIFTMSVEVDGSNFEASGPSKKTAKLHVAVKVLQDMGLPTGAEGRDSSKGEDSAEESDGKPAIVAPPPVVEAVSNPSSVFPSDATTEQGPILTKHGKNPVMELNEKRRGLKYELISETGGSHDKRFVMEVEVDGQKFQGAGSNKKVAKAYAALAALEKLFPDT

[2] = target: NF90long;NF45-deltaN28 (mouse;mouse, UniProt Q9Z1X4;Q9CXY6 1-590;28-390, |); experiment: as above; details: protein: recombinant;recombinant; tags: 6xHis removed by TEV;6xHis removed by TEV; copies: 1;1; label: 5' Cy3 on strand 1; blunt
[3] = target: T2, NF90dsRBDs-deltaNLS (mouse, UniProt Q9Z1X4 393-592); experiment: ITC; apparent Kd; unit as printed (mM), possibly uM misprint; 1:2 RNA:protein; EMSA: 20 mM HEPES pH 7.5, 150 mM K acetate, on ice, 1 uM RNA (competition 0.5 uM complex); FA: same buffer, 23.5 C, 250 nM RNA; ITC: 20 mM HEPES pH 7.5, 50 mM NaCl, 25 C; details: protein: recombinant; tags: GST removed by TEV; chain copies: 2; blunt
T2 sequence: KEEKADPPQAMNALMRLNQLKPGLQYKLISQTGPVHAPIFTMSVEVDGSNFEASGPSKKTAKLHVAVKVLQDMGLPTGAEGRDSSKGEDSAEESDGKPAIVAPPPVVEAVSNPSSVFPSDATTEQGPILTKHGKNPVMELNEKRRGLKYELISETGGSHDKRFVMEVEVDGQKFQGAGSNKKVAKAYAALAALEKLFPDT

[4] = target: NF90-deltaC380;NF45-deltaN28 (with NF90-deltaC380) (mouse?;mouse?, UniProt Q9Z1X4;Q9CXY6 1-380;28-390, |); experiment: EMSA; EMSA: 20 mM HEPES pH 7.5, 150 mM K acetate, on ice, 1 uM RNA (competition 0.5 uM complex); FA: same buffer, 23.5 C, 250 nM RNA; ITC: 20 mM HEPES pH 7.5, 50 mM NaCl, 25 C; details: protein: recombinant;recombinant; tags: ;; copies: 1;1; label: 5' DY781 on strand 1; blunt
[5] = target: NF90long;NF45 (mouse;mouse?, UniProt Q9Z1X4;Q9CXY6 1-590;1-390, |); experiment: competition; competes DY781 21mer efficiently; EMSA: 20 mM HEPES pH 7.5, 150 mM K acetate, on ice, 1 uM RNA (competition 0.5 uM complex); FA: same buffer, 23.5 C, 250 nM RNA; ITC: 20 mM HEPES pH 7.5, 50 mM NaCl, 25 C; details: protein: recombinant;recombinant; tags: 6xHis removed by TEV;6xHis removed by TEV; copies: 1;1; hairpin with mismatches

B1: 21mer dsRNA, Cy3 (dsRNA)
RNA 1: UCACUUUCAUAAUGCUGGAUA
RNA 2: UAUCCAGCAUUAUGAAAGUGA
Kd [1]: 0.433 ± 0.055 µM | Kd [2]: 0.046 ± 0.016 µM

B2: 18mer dsRNA, unmodified (dsRNA)
RNA 1: UCACUUUCAUAAUGCUGG
RNA 2: CCAGCAUUAUGAAAGUGA
Kd [3]: ~2400 µM

B3: 21mer dsRNA, DY781 (dsRNA)
RNA 1: UCACUUUCAUAAUGCUGGAUA
RNA 2: UAUCCAGCAUUAUGAAAGUGA
binding result [4]: no binding

B4: GluA2(R/G) hairpin RNA (structured_RNA)
RNA: CAUUAAGGUGGGUGGAAUAGUAUAACAAUAUGCUAAAUGUUGUUAUAGUAUCCCACCUACCCUGAUG
binding result [5]: binds

B5: 18mer dsRNA, 2'F strand (dsRNA)
RNA 1: UCACUUUCAUAAUGCUGG
RNA 2: CCAGCAUUAUGAAAGUGA
modifications: 2'-F ribose uniformly on strand 1
Kd [3]: ~2400 µM
